Laboratory results published in the RNAGym collection of RNA variant scans (doi:10.1021/acssynbio.7b00057).

B1: Pistol ribozyme (parent)
chain: GGGUCGUUGUUCCAUAAUCGCGUGGAUAUGGCACGCAAGUUUCUACCGGGCACCGUAAAUGUCCGACUGGAGCCGUUCGGGCGGCUAUAAACAGACCUCAGGCCCGAAGCGUGGCGGCACCUGCCGCCGGUGGUAAAAAAGAUCGGAAGAGCACACGUCU

Variants of: B1
Assay: aptazyme ON/OFF ratio, guanine; higher = stronger switching; co-transcriptional cleavage with and without guanine

Variant | aptazyme ON/OFF ratio
U7G U8C U10A U11G C12A | 1.1
U7G U8C U10A U11G C12G | 1.19
U7G U8C U10A U11G C12U | 1.22
U7G U8C G9U U11A C13A | 1.22
U7G U8C G9U U11A C13U | 1.56
U7G U8C G9U U11A C13G | 1.02
U7G U8C G9U U11G C12U C13A | 1.26
U7G U8C G9U U11G C12U C13U | 1.35
U7G U8C G9U U11G C12U C13G | 1.28
U7G U8C G9U U11G C13G | 1.05
U7G U8C G9U U11G C13A | 1.32
U7G U8C G9U U11G C13U | 1.41
U7G U8C U10C U11A | 2.21
U7G U8C U10C C12A | 1.22
U7G U8C U10C C12G | 1.37
U7G U8C U10C C12U | 3.24
U7G U8C U10A U11G C12G C13A | 1.22
U7G U8C U10A U11G C12G C13G | 1.3
U7G U8C U10A U11G C12G C13U | 1.25
U7G U8C G9U U11C | 2.88
U7G U8C G9U U11G | 1.36
U7G U8C G9U U11A | 1.8
U7G U8C G9U U11A C12U C13G | 1.17
U7G U8C G9U U11A C12U C13A | 1.46

Variant | aptazyme ON/OFF ratio
U7G U8C G9U U11A C12U C13U | 1.41
U7G U8C G9U U11A C12G C13G | 1.13
U7G U8C G9U U11A C12G C13U | 1.22
U7G U8C G9U U11A C12G C13A | 1.1
U7G U8C U10A U11C C12A C13U | 1.27
U7G U8C U10A U11C C12A C13G | 1.23
U7G U8C U10A U11C C12A C13A | 1.13
U7G U8C U10A U11C C12A | 1.24
U7G U8C U10A U11C C12U | 1.03
U7G U8C U10A U11C C12G | 1.16
U7G U8C G9U U11A C12A | 2.91
U7G U8C G9U U11A C12U | 2.56
U7G U8C G9U U11A C12G | 2.17
U7G U8C U10A U11A C13U | 1.21
U7G U8C U10A U11A C13G | 1.18
U7G U8C U10A U11A C13A | 1.18
U7G U8C U10C C12U C13G | 1.19
U7G U8C U10C C12U C13U | 1.27
U7G U8C U10C C12U C13A | 1.15
U7G U8C G9U U10G U11G C12G C13U | 1.25
U7G U8C G9U U10G U11G C12G C13G | 1.23
U7G U8C G9U U10G U11G C12G C13A | 1.11
U7G U8C U10A U11A C12A | 1.05
U7G U8C U10A U11A C12G | 1.13

Variant | aptazyme ON/OFF ratio
U7G U8C U10A U11A C12U | 1.43
U7G U8C G9U U11C C13G | 1.04
U7G U8C G9U U11C C13A | 1.38
U7G U8C G9U U11C C13U | 1.3
U7G U8C U10C C12A C13G | 1.16
U7G U8C U10C C12A C13A | 1.19
U7G U8C U10C C12A C13U | 1.24
U7G U8C U10A U11G C13U | 1.23
U7G U8C U10A U11G C13A | 1.22
U7G U8C U10A U11G C13G | 1.23
U7G U8C G9U U10G U11G C12U | 1.35
U7G U8C G9U U10G U11G C12A | 1.31
U7G U8C G9U U10G U11G C12G | 1.31
U7G U8C G9U U11C C12A C13G | 1.32
U7G U8C G9U U11C C12A C13U | 1.23
U7G U8C G9U U11C C12A C13A | 1.36
U7G U8C U10C | 2.63
U7G U8C U10A | 1.33
U7G U8C G9U U10G U11G C12U C13U | 1.44
U7G U8C G9U U10G U11G C12U C13A | 1.17
U7G U8C G9U U10G U11G C12U C13G | 1.08
U7G U8C U10A U11A C12G C13A | 1.1
U7G U8C U10A U11A C12G C13G | 1.22
U7G U8C U10A U11A C12G C13U | 1.26

Variant | aptazyme ON/OFF ratio
U7G U8C U10A U11A C12U C13G | 1.2
U7G U8C U10A U11A C12U C13U | 1.24
U7G U8C U10A U11A C12U C13A | 1.2
U7G U8C G9U U10G U11G C12A C13U | 1.34
U7G U8C G9U U10G U11G C12A C13A | 1.11
U7G U8C G9U U10G U11G C12A C13G | 1.12
U7G U8C U10A U11G C12A C13G | 1.13
U7G U8C U10A U11G C12A C13U | 1.19
U7G U8C U10A U11G C12A C13A | 1.08
U7G U8C U10A U11C C12G C13U | 1.16
U7G U8C U10A U11C C12G C13G | 1.06
U7G U8C U10A U11C C12G C13A | 1.11
U7G U8C G9U U10G U11C C12A C13G | 1.45
U7G U8C G9U U10G U11C C12A C13U | 1.37
U7G U8C G9U U10G U11C C12A C13A | 1.23
U7G U8C G9U U10G U11C | 1.15
U7G U8C G9U U10G U11G | 1.55
U7G U8C U10C U11A C12G | 1.25
U7G U8C U10C U11A C12A | 1.44
U7G U8C G9U U11C C12U C13U | 1.49
U7G U8C G9U U11C C12U C13A | 1.31
U7G U8C G9U U11C C12U C13G | 1.05
U7G U8C U10A U11G C12U C13A | 1.22
U7G U8C U10A U11G C12U C13G | 1.16

Variant | aptazyme ON/OFF ratio
U7G U8C U10A U11G C12U C13U | 1.16
U7G U8C G9U U11A C12A C13U | 1.5
U7G U8C G9U U11A C12A C13G | 1.14
U7G U8C G9U U11A C12A C13A | 1.28
U7G U8C U10A U11A C12A C13G | 1.14
U7G U8C U10A U11A C12A C13A | 1.13
U7G U8C U10A U11A C12A C13U | 1.15
U7G U8C U10A C12U C13A | 1.36
U7G U8C U10A C12U C13U | 1.12
U7G U8C U10A C12U C13G | 1.26
U7G U8C U10C C12G C13G | 1.24
U7G U8C U10C C12G C13U | 1.28
U7G U8C U10C C12G C13A | 1.2
U7G U8C U10A C13G | 1.08
U7G U8C U10A C13A | 1.11
U7G U8C U10A C13U | 1.12
U7G U8C U10C U11A C12A C13A | 1.26
U7G U8C U10C U11A C12A C13U | 1.21
U7G U8C U10C U11A C12A C13G | 1.14
U7G U8C G9U U11C C12U | 2.13
U7G U8C G9U U11C C12A | 1.31
U7G U8C G9U U11C C12G | 1.37
U7G U8C G9U U10G U11C C13A | 1.38
U7G U8C G9U U10G U11C C13G | 1.09

Variant | aptazyme ON/OFF ratio
U7G U8C G9U U10G U11C C13U | 1.18
U7G U8C G9U U10G U11G C13G | 1.17
U7G U8C G9U U10G U11G C13A | 1.22
U7G U8C G9U U10G U11G C13U | 1.36
U7G U8C G9U U11G C12A C13U | 1.38
U7G U8C G9U U11G C12A C13G | 1.35
U7G U8C G9U U11G C12A C13A | 1.11
U7G U8C G9U U11G C12U | 1.55
U7G U8C G9U U11G C12A | 1.44
U7G U8C G9U U11G C12G | 1.34
U7G U8C U10A C12G | 1.29
U7G U8C U10A C12A | 1.21
U7G U8C U10A C12U | 1.31
U7G U8C G9U U11C C12G C13A | 1.3
U7G U8C G9U U11C C12G C13U | 1.32
U7G U8C G9U U11C C12G C13G | 1.32
U7G U8C G9U U11G C12G C13A | 1.08
U7G U8C G9U U11G C12G C13G | 1.12
U7G U8C G9U U11G C12G C13U | 1.09
U7G U8C G9U U10G U11C C12G C13G | 1.04
U7G U8C G9U U10G U11C C12G C13U | 1.29
U7G U8C G9U U10G U11C C12G C13A | 1.26
U7G U8C G9U U10G U11C C12U C13U | 1.16
U7G U8C G9U U10G U11C C12U C13A | 1.34

Variant | aptazyme ON/OFF ratio
U7G U8C G9U U10G U11C C12U C13G | 1.22
U7G U8C U10C C13G | 1.07
U7G U8C U10C C13A | 1.07
U7G U8C U10C C13U | 1.64
U7G U8C U10A C12G C13U | 1.32
U7G U8C U10A C12G C13G | 1.15
U7G U8C U10A C12G C13A | 1.22
U7G U8C U10A U11C C12U C13A | 1.13
U7G U8C U10A U11C C12U C13G | 1.12
U7G U8C U10A U11C C12U C13U | 1.07
U7G U8C U10A U11C C13U | 1.04
U7G U8C U10A U11C C13A | 1.05
U7G U8C U10A U11C C13G | 1.04
U7G U8C G9U U10G U11C C12U | 1.26
U7G U8C G9U U10G U11C C12G | 1.38
U7G U8C G9U U10G U11C C12A | 2.33
U7G U8C U10A U11A | 2.71
U7G U8C U10A U11C | 1.04
U7G U8C U10A U11G | 1.29
U7G U8C U10C U11A C12G C13A | 1.13
U7G U8C U10A C12A C13G | 1.1
U7G U8C U10A C12A C13U | 1.36
U7G U8C U10A C12A C13A | 1.24
